According to patent US8299023 (Hoffmann-La Roche, dated 2012):
Numbered stars: 1 amine (or outer) side, 2 acyl side, 3 side chain; on linkers, the order of the positions; unused ones are H or OH. Square brackets hold non-standard residues; d marks the D form. Primed or numbered codes have the meaning given here. HomPqa = 3-hydroxy-2-(4-oxo-6-piperazin-1-yl-4H-quinazolin-3-yl)-propionic acid, O=C(C(CO[*:3])n1cnc2ccc(N3CCN([*:1])CC3)cc2c1=O)[*:2]; Pdp = (6-oxo-2-piperazin-1-yl-1,6-dihydropurin-7-yl)-acetic acid, O=C(Cn1cnc2nc(N3CCN([*:1])CC3)[nH]c(=O)c21)[*:2]; Dqa = (6-[1,4]diazepan-1-yl-4-oxo-4H-quinazolin-3-yl)-acetic acid, O=C(Cn1cnc2ccc(N3CCCN([*:1])CC3)cc2c1=O)[*:2]; Pipa = (1-oxo-7-piperazin-1-yl-1H-isoquinolin-2-yl)-acetic acid, O=C(Cn1ccc2ccc(N3CCN([*:1])CC3)cc2c1=O)[*:2]; Appa = (6-Amino-2-piperazin-1-yl-9H-purin-8-yl)-acetic acid, Nc1nc(N2CCN([*:1])CC2)nc2[nH]c(CC(=O)[*:2])nc12; Cip = (5-Piperazin-1-yl-indole-1-yl)-acetic acid, O=C(Cn1ccc2cc(N3CCN([*:1])CC3)ccc21)[*:2]; Cba′ = (4-Aminomethyl-biphenyl-3-yl)-acetic acid, O=C(Cc1cc(-c2ccccc2)ccc1CN[*:1])[*:2]; Bqa = ((1R,4S)-6-2-Aza-bicyclo[2.2.1]hept-5-yl-4-oxo-4H-quinazolin)-acetic acid; Ppa = (2-piperazin-1-yl-purin-7-yl)-acetic acid; NMeR = CN[C@@H](CCCNC(=N)N)C(=O)O

T1: Y5R
T1 sequence (Q15761 whole entry, species assumed, looked up): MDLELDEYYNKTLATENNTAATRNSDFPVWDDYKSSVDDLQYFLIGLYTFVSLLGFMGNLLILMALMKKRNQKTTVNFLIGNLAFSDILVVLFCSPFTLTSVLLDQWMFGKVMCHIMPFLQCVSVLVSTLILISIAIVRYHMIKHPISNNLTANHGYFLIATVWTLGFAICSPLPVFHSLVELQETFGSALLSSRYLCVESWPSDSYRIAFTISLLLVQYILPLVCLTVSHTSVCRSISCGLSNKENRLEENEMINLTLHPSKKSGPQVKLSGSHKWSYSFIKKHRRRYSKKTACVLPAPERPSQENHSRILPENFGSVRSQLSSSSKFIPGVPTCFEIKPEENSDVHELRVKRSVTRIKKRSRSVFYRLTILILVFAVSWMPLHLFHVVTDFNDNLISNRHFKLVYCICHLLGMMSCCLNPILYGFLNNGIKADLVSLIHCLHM

T2: human NPY2 receptor (human, UniProt P49146 1-381)
T2 sequence (looked up): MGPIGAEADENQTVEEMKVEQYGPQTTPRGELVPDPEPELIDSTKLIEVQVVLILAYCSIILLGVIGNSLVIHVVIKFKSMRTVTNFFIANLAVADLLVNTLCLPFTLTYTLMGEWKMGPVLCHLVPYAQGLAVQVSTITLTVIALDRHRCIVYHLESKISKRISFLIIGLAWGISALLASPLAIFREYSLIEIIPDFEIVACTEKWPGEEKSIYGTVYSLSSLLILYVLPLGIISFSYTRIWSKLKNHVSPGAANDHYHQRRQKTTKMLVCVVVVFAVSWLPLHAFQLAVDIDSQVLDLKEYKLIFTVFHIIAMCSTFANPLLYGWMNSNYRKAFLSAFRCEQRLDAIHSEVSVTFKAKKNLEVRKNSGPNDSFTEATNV

B1: Ac-Ile-Lys-Bqa-Arg-His-Tyr-Leu-Asn-Trp-Val-Thr-Arg-Gln-(NMe)Arg-Tyr-NH2 (peptide)
peptide: Ac-IK[Bqa]RHYLNWVTRQ[NMeR]Y-NH2
B2: Ac-Ile-Lys-Cip-Arg-His-Tyr-Leu-Asn-Trp-Val-Thr-Arg-Gln-(NMe)Arg-Tyr-NH2 (peptide)
peptide: Ac-IK[Cip]RHYLNWVTRQ[NMeR]Y-NH2
SMILES: CC[C@H](C)[C@H](NC(C)=O)C(=O)N[C@@H](CCCCN)C(=O)N1CCN(c2ccc3c(ccn3CC(=O)N[C@@H](CCCNC(=N)N)C(=O)N[C@@H](Cc3c[nH]cn3)C(=O)N[C@@H](Cc3ccc(O)cc3)C(=O)N[C@@H](CC(C)C)C(=O)N[C@@H](CC(N)=O)C(=O)N[C@@H](Cc3c[nH]c4ccccc34)C(=O)N[C@H](C(=O)N[C@H](C(=O)N[C@@H](CCCNC(=N)N)C(=O)N[C@@H](CCC(N)=O)C(=O)N(C)[C@@H](CCCNC(=N)N)C(=O)N[C@@H](Cc3ccc(O)cc3)C(N)=O)[C@@H](C)O)C(C)C)c2)CC1
B3: Ac-Ile-Lys-Cba-Arg-His-Tyr-Leu-Asn-Trp-Val-Thr-Arg-Gln-(NMe)Arg-Tyr-NH2 (peptide)
peptide: Ac-IK[Cba′]RHYLNWVTRQ[NMeR]Y-NH2
B4: Ac-Ile-Lys-Ppa-Arg-His-Tyr-Leu-Asn-Trp-Val-Thr-Arg-Gln-(NMe)Arg-Tyr-NH2 (peptide)
peptide: Ac-IK[Ppa]RHYLNWVTRQ[NMeR]Y-NH2
B5: Ac-Ile-Lys-Pipa-Arg-His-Tyr-Leu-Asn-Trp-Val-Thr-Arg-Gln-(NMe)Arg-Tyr-NH2 (peptide)
peptide: Ac-IK[Pipa]RHYLNWVTRQ[NMeR]Y-NH2
SMILES: CC[C@H](C)[C@H](NC(C)=O)C(=O)N[C@@H](CCCCN)C(=O)N1CCN(c2ccc3ccn(CC(=O)N[C@@H](CCCNC(=N)N)C(=O)N[C@@H](Cc4c[nH]cn4)C(=O)N[C@@H](Cc4ccc(O)cc4)C(=O)N[C@@H](CC(C)C)C(=O)N[C@@H](CC(N)=O)C(=O)N[C@@H](Cc4c[nH]c5ccccc45)C(=O)N[C@H](C(=O)N[C@H](C(=O)N[C@@H](CCCNC(=N)N)C(=O)N[C@@H](CCC(N)=O)C(=O)N(C)[C@@H](CCCNC(=N)N)C(=O)N[C@@H](Cc4ccc(O)cc4)C(N)=O)[C@@H](C)O)C(C)C)c(=O)c3c2)CC1
B6: Ac-Ile-Lys-Dqa-Arg-His-Tyr-Leu-Asn-Trp-Val-Thr-Arg-Gln-(NMe)Arg-Tyr-NH2 (peptide)
peptide: Ac-IK[Dqa]RHYLNWVTRQ[NMeR]Y-NH2
B7: Ac-Ile-Lys-Appa-Arg-His-Tyr-Leu-Asn-Trp-Val-Thr-Arg-Gln-(NMe)Arg-Tyr-NH2 (peptide)
peptide: Ac-IK[Appa]RHYLNWVTRQ[NMeR]Y-NH2
B8: Ac-Ile-Lys-Pdp-Arg-His-Tyr-Leu-Asn-Trp-Val-Thr-Arg-Gln-(NMe)Arg-Tyr-NH2 (peptide)
peptide: Ac-IK[Pdp]RHYLNWVTRQ[NMeR]Y-NH2
SMILES: CC[C@H](C)[C@H](NC(C)=O)C(=O)N[C@@H](CCCCN)C(=O)N1CCN(c2nc3ncn(CC(=O)N[C@@H](CCCNC(=N)N)C(=O)N[C@@H](Cc4c[nH]cn4)C(=O)N[C@@H](Cc4ccc(O)cc4)C(=O)N[C@@H](CC(C)C)C(=O)N[C@@H](CC(N)=O)C(=O)N[C@@H](Cc4c[nH]c5ccccc45)C(=O)N[C@H](C(=O)N[C@H](C(=O)N[C@@H](CCCNC(=N)N)C(=O)N[C@@H](CCC(N)=O)C(=O)N(C)[C@@H](CCCNC(=N)N)C(=O)N[C@@H](Cc4ccc(O)cc4)C(N)=O)[C@@H](C)O)C(C)C)c3c(=O)[nH]2)CC1
B9: Ac-Ile-Lys-HomPqa-Arg-His-Tyr-Leu-Asn-Trp-Val-Thr-Arg-Gln-(NMe)Arg-Tyr-NH2 (peptide)
peptide: Ac-IK[HomPqa]RHYLNWVTRQ[NMeR]Y-NH2

Assays:
Test in all cases: cell-based or functional assay
Y1R = target: Y1R
Y4R = target: Y4R
Y5R = target: T1, Y5R
human NPY2 receptor = target: T2, human NPY2 receptor

Sequence of Y1R (P25929 whole entry): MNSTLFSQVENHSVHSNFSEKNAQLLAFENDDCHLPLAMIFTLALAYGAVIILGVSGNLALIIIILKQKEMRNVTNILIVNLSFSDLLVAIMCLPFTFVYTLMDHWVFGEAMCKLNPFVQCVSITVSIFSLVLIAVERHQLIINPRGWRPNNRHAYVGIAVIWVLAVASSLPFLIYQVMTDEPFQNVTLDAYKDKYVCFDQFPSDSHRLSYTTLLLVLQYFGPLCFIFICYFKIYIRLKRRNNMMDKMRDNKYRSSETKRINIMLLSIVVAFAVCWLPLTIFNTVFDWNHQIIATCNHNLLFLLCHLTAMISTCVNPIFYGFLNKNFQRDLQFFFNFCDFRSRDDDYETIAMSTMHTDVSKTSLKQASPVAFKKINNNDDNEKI

Binder | Y1R EC50 (nM) FLIPR (Y1R) [nM] | Y4R EC50 (nM) FLIPR (Y4R) [nM] | Y5R EC50 (nM) FLIPR (Y5R) [nM] | Y2R EC50 (nM) FLIRR (Ca flux, FLIPR) (human NPY2 receptor) [nM] | Y2R EC50 (nM) cAMP (human NPY2 receptor) [nM]
B1 | > 5000 | > 5000 | 2870 | 0.072 | 0.17
B2 | > 30000 | > 30000 | 10700 | 0.14 | 0.36
B3 | > 30000 | > 30000 | > 30000 | 0.51 | 1.97
B4 | > 5000 | > 5000 | 1100 | 0.45 | 0.12
B5 | > 5000 | > 5000 | 2340 | 0.045 | 0.18
B6 | > 9000 | > 9000 | 6030 | 0.25 | 0.35
B7 | > 5000 | > 5000 | 3300 | 0.156 | 0.18
B8 | > 9000 | > 9000 | > 9000 | 0.037 | 0.24
B9 | > 9000 | 2790 | 4940 | 0.6 | 4.35
